Data as given in patent US20150267176.

How the values were obtained:
SCL enhancer TALE-LSD1 = assay: cell_activity; details: K562 ChIP-qPCR vs mCherry; H3K27ac reduced >4-fold
[1] = test system: SCL enhancer TALE-3X FLAG; details: anti-FLAG ChIP-seq in K562, input 1; top ranked and only reproducible peak; exact SCL target not identified in text (candidates SEQ 9, 11, 37)
[2] = test system: TALE-LSD1 #11 (ZFPM2 +16); assay: cell_activity; details: expression change not significant; histone modification levels at target reduced; +16 matched to #11 by coordinates
[3] = test system: TALE-LSD1 #25 (ZFPM2 +10); assay: cell_activity; details: K562 RT-qPCR; +10 enhancer matched to #25 by coordinates; also reduces enhancer histone marks
[4] = test system: TALE-LSD1 #28 (ZFPM2 +45); assay: cell_activity; details: expression change not significant; histone modification levels at target reduced; +45 matched to #28 by coordinates

Which results are given for SCL enhancer 18 bp TALE target (18/18)?
activity (fold reduction of H3K4me2) (SCL enhancer TALE-LSD1): 3; binding signal (tags per 1 kb bin) [1]: 17.5

With TALE #11 target chr8:106,347,824 as the substance, how does the activity (% reduction of ZFPM2 expression) [2] read?
The activity (% reduction of ZFPM2 expression) was 13.

For TALE #25 target chr8:106,341,287, which activity (fold reduction of ZFPM2 expression) [3] is on record?
The activity (fold reduction of ZFPM2 expression) was 2.

Which activity (% reduction of ZFPM2 expression) [4] does the source give for TALE #28 target chr8:106,376,850 here?
Its activity (% reduction of ZFPM2 expression) is 22.
